The results in this text go back to PMC12327374 (Biomedicine & pharmacotherapy = Biomedecine & …, 2024).

This assay has as its target SUSD5 protein, expressed on HEK293 cells (ZsGreen1-SUSD5 vector) (Homo sapiens, UniProt O60279). In words: flow cytometry on cells. On the technique in general: Flow cytometry measures light scatter and fluorescence of single cells or particles in a stream.

Chain of SUSD5 protein, expressed on HEK293 cells (ZsGreen1-SUSD5 vector) (O60279 36-629): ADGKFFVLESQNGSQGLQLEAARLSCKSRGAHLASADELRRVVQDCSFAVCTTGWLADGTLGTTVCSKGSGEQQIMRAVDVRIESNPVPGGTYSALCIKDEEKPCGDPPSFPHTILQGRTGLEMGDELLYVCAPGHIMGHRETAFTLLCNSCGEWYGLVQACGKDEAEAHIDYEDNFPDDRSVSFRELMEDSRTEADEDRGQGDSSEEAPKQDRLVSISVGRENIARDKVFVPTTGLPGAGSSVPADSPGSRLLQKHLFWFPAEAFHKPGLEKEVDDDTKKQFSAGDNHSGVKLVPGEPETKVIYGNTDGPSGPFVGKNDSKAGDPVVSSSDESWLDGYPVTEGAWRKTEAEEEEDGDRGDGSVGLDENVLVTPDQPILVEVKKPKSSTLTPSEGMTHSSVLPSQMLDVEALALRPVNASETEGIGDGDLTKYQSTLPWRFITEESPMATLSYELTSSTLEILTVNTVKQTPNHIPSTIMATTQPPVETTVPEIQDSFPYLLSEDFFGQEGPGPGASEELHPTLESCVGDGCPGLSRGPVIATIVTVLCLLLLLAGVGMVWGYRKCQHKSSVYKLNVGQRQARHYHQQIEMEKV

B1: h1-3F1, stabilized humanized anti-CD169 mAb of clone #3F1 (variant 6 of h0-3F1) (antibody, V domains shown)
VH: QVQLVQSGAEVKKPGASVKVSCKASGYSFTTYYMHWVRQAPGQRLEWMGWISAYSGATKYSQKFQGRVTITRDTSASTAYMELSSLRSEDTAVYYCARKGGWIPFDYWGQGTTVTVSS
VL: not shown
On to B1, for which the binding result is given as “binds”.
